{"source": "patent US20260263364A1", "about": "“OSTEOCLAST-DERIVED MICROVESICLES AND METHODS OF PROMOTING BONE REGENERATION” (The United States Government as represented by the …, priority 2023, published 2026)", "molecules": {"B1": {"name": "PTH: used to increase bone turnover / stimulate bone remodeling (protein, UniProt P01270 32-115, looked up)", "Parathyroid hormone": "SVSEIQLMHNLGKHLNSMERVEWLRKKLQDVHNFVALGAPLAPRDAGSQRPRKKEDNVLVESHEKSLGEADKADVNVLTKAKSQ", "modifications": "Parathyroid hormone", "notes": "used to increase bone turnover / stimulate bone remodeling"}}, "tested_on": "osteoclastic cells", "experiment": "Release of soluble EfnB2 into CM by osteoclastic cells (Western blots)", "assay_type": "cell-based", "excerpt": "Regarding the EfnB2, EfnB2 on the plasma membrane of osteoclasts binds the EphB4 receptor on the cell surface of nearby osteoprogenitors to trigger the EfnB2-EphB4 bidirectional signaling, which on the one hand suppresses osteoclastic resorption through activation of the reverse signaling of EfnB2 in osteoclasts and on the other hand upregulates the EphB4 forward signaling in osteoblasts to stimulate osteoblast maturation and activity. However, this bidirectional signaling mechanism requires direct cell-cell contact between osteoclasts and osteoprogenitors. Given the fact that very few osteoblasts or progenitors are present at the remodeling site that could make direct contact with the resorbing osteoclast, this cell-cell contact-dependent bidirectional mechanism is unlikely a major mechanism for the coupled bone formation under normal situations. It also could not be responsible for the soluble osteoanabolic activity of osteoclasts. […] Treatment with EfnA4-fc or PTH increased its releases each by ~75% and the large majority of the released EfnB2 was associated with the MV fraction. As an initial test of the possibility that EfnB2 is a candidate for an osteoanabolic component, it was tested whether the osteogenic activity of CM or that of MV could be blocked by pretreatment with anti-EfnB2 antibody. […]"}
{"molecule": "B1", "values": [{"measurement": "increase of release of soluble EfnB2", "value": "~ 75%"}]}
